Results taken from PMC7283272, “Identifying the role of PrimPol in TDF-induced toxicity and implications of its loss of function mutation in an HIV+ patient”.

Molecular target: T1, PrimPol WT (UniProt Q96LW4 1-560)
T1 sequence: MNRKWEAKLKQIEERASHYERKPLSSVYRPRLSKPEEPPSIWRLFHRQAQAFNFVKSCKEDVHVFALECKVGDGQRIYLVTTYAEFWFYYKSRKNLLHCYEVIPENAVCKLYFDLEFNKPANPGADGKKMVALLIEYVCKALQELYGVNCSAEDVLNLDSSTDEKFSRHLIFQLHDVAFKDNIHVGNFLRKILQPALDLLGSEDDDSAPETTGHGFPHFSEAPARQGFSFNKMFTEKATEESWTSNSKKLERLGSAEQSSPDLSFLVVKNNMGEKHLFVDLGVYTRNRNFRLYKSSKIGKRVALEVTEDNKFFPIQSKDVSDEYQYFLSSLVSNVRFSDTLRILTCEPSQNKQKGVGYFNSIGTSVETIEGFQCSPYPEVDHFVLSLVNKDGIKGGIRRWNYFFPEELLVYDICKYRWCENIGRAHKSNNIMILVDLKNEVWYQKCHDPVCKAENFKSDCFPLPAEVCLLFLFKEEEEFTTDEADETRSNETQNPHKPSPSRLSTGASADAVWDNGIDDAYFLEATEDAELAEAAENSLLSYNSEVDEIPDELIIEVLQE
Experiment: thermal shift (DSF, stabilization by DNA); 10 uM Mn2+; EMSA: Mn2+ present, buffer not given in the material. DSF: 5 uM protein, 5 uM dsDNA, 50 mM Tris pH 7.5, 300 mM NaCl, 0.5 uM TCEP, 5% glycerol, 10 uM MgCl2 or MnCl2, 4-95 C ramp
Details: protein: recombinant; tags: N-terminal His-TEV (tag cleaved); 20 bp, template 5' overhang 25 nt

B1: D20A/D45 primer/template (dsDNA)
DNA 1: GCCTCGCAGCCGTCCAACCA
DNA 2: GGACGGCATTGGATCGAGGTTGAGTTGGTTGGACGGCTGCGAGGC
**Q.** Does B1 bind?
**A.** binds
